Data: patent US20230312735A1 (IMMUNOGEN, published 2023)

Molecular target: T1, human CD123 (interleukin-3 receptor alpha subunit) (human, UniProt P26951 19-378)
T1 construct: Native CD123 on patients' cells; also called IL-3Rα; Interleukine-3 Receptor alpha
Experiment: average CD123 receptor saturation on patients' cells after intravenous IMGN632, Schedule A, Cohorts 1-6 (method not described)

T1 sequence (P26951 19-378 limits assumed): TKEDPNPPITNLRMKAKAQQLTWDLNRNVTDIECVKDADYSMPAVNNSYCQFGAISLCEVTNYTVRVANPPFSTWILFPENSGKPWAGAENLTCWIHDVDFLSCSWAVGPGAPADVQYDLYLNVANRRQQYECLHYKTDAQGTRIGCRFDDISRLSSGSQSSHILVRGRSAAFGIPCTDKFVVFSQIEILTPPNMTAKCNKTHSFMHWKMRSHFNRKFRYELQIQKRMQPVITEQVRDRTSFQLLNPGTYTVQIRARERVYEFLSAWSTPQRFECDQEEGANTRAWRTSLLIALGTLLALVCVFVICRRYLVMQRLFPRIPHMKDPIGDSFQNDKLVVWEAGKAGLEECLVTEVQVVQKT

binding result: binds
B1: IMGN632 (immunoconjugate of the anti-CD123 huCD123-6Gv4.7 antibody linked to DGN549-C) (antibody, V domains shown)
VH: QVQLVQSGAEVKKPGASVKVSCKASGYIFTSSIMHWVRQAPGQGLEWIGYIKPYNDGTKYNEKFKGRATLTSDRSTSTAYMELSSLRSEDTAVYYCAREGGNDYYDTMDYWGQGTLVTVSS
VL: DIQMTQSPSSLSASVGDRVTITCRASQDINSYLSWFQQKPGKAPKTLIYRVNRLVDGVPSRFSGSGSGNDYTLTISSLQPEDFATYYCLQYDAFPYTFGQGTKVEIKR
modifications: DGN549-C cytotoxic agent (peptide linker) covalently linked through a cysteine residue (huCD123-6Gv7-C442 heavy chain); average of 1.5 to 2.1 DGN549-C per antibody, mostly the sulfonated form
notes: also called anti-CD123 immunoconjugate; G4723A-DGN549-C
